For one assay, the target named is BCMA 101 x CD3. Kind of assay: SPR (Biacore).
A further assay has as its target BCMA 102 x CD3. Kind of assay: SPR (Biacore). For orientation: In SPR one partner is held on a chip, and binding of the other changes the refractive index at the surface.

B1: Human BCMA (other)
chain (part 1 of 2): MLQMAGQCSQNEYFDSLLHACIPCQLRCSSNTPPLTCQRYCNASVTNSVKGTNASGGGGSEAHKSEIAHRYNDLGEQHFKGLVLIAFSQYLQKCSYDEHAKLVQEVTDFAKTCVADESAANCDKSLHTLFGDKLCAIPNLRENYGELADCCTKQEPERNECFLQHKDDNPSLPPFERPEAEAMCTSFKENPTTFMGHYLHEVARRHPYFYAPELLYYAEQYNEILTQCCAEADKESCLTPKLDGVKEKALVSSVRQRMKCSSMQKFGERAFKAWAVARLSQTFPNADFAEITKLATDLTKVNKECCHGDLLECADDRAELAKYMCENQATISSKLQTCCDKPLLKKAHCLSEVEHDTMPADLPAIAADFVEDQEVCKNYAEAKDVFLGTFLYEYSRRHPDYSVSLLLRLAKKYEATLEKCCAEANPPACYGTVLAEFQPLVEEPKNLVKTNCDLYEKLGEYGFQNAILVRYTQKAPQVSTPTLVEAARNLGRVGTKCCTLPEDQRLPCVEDYLSAILNRVCLLHEKTPVSEHVTKCCSGSLVERRPCFSALTVDETYVPKEFKAETFTFHSDICTLPEKEKQIKKQTALAELVKHKPKATAEQLKTVMDDFAQFLDTCCKAADKDTCFSTEGPNLVTRCKDALA
chain (part 2 of 2): SGHHGGHHGGHH
As for B1, the Kd turned out to be 0.5 nM with BCMA 101 x CD3 and 0.6 nM with BCMA 102 x CD3.

The term Kd denotes the concentration at which binding is half-saturated. Read a low Kd as higher affinity.

Values taken from patent US20150023967A1 (published 2015).
